One block for each molecule: values may come before it.
Legend:
[1] = molecular target: β-amyloid peptide (1-42) conjugated to BSA (Aβ1-42-Cys-BSA conjugate) (bovine); assay: competitive ELISA on Aβ1-42-BSA against biotinylated Mu266 (0.3 µg/ml), first set of three experiments
[2] = molecular target: β-amyloid peptide (1-42) conjugated to BSA (Aβ1-42-Cys-BSA conjugate) (bovine); assay: competitive ELISA on Aβ1-42-BSA against biotinylated Mu266 (0.3 µg/ml), second set of three experiments
Aβ 1-40 peptide (human) = assay: KinExA 3000 equilibrium analysis, 37 C, Fab with serially diluted human soluble Abeta (1-40)
[3] = molecular target: T1, β-amyloid peptide (1-42) conjugated to BSA (Aβ1-42-Cys-BSA conjugate) (bovine, maleimide-activated; Cys43 coupled to maleimide-activated bovine serum albumin); assay: competitive ELISA on Aβ1-42-BSA against biotinylated Mu266 (0.3 µg/ml), first set of three experiments
T1 construct: Coated on ELISA plates at 10 µg/mL; also called Aβ1-42-BSA conjugate; Aβ1-42-Cys43
Description: (§1) The Aβ142-BSA conjugate was prepared by dissolving 7.5 mg of Aβ₁₋₄₂-Cys₄₃ (C-terminal cysteine Aβ₁₋₄₂, AnaSpec) in 500 μL of dimethylsulfoxide, and then immediately adding 1,500 μL of distilled water. Two (2) milligrams of maleimide-activated bovine serum albumin (Pierce) was dissolved in 200 μL of distilled water. The two solutions were combined, thoroughly mixed, and allowed to stand at room temperature for two (2) hours. A gel chromatography column was used to separate unreacted peptide from Aβ₁₋₄₂-Cys-BSA conjugate.
(§2) After washing the wells with phosphate buffered saline (PBS) containing 0.1% Tween 20 (Washing Buffer) using an ELISA plate washer, the wells were blocked by adding 300 μL of SuperBlock reagent (Pierce) per well. After 30 minutes of blocking, the wells were washed Washing Buffer and excess liquid was removed.
(§3) As a background control, 100 μl of ELISA Buffer was added. The ELISA plate was incubated at room temperature for 90 min. After washing the wells with Washing Buffer, 100 μl of 1 μg/ml HRP-conjugated streptavidin (Cat #21124, Pierce) was added to each well. […] Absorbance was read at 415 nm. The absorbances were plotted against the log of the competitor concentration, curves were fit to the data points (using Prism) and the IC50 was determined for each antibody using methods well-known in the art.

[4] = molecular target: T1, β-amyloid peptide (1-42) conjugated to …; assay: competitive ELISA on Aβ1-42-BSA against biotinylated Mu266 (0.3 µg/ml), second set of three experiments
Description: as §1, §2, §3

IC50 [1]: 4.7 µg/mL | IC50 [2]: 3.87 µg/mL
Molecule: Mouse monoclonal antibody 266 (Mu266)

Kd (Aβ 1-40 peptide (human)): 0.24 nM
Molecule: m266-Fab (Fab fragment of murine monoclonal antibody 266)

IC50 [3]: 7.5 µg/mL | IC50 [4]: 4 µg/mL
B1: humanized 266 antibody (Hu266) (antibody, human IgG1, kappa, V domains shown)
VH: EVQLVESGGGLVQPGGSLRLSCAASGFTFSRYSMSWVRQAPGKGLELVAQINSVGNSTYYPDTVKGRFTISRDNAKNTLYLQMNSLRAEDTAVYYCASGDYWGQGTLVTVSS
VL: DVVMTQSPLSLPVTLGQPASISCRSSQSLIYSDGNAYLHWFLQKPGQSPRLLIYKVSNRFSGVPDRFSGSGSGTDFTLKISRVEAEDVGVYYCSQSTHVPWTFGQGTKVEIKR
notes: Mature antibody expressed from pVk-Hu266 and pVg1-Hu266 in Sp2/0 cells; also called exemplified anti-Aβ antibody
